Experimental data: patent publication US20170022281A1 (AbbVie / Abbott, published 2017)
Positions count from the first letter of the chain named.

T1: human PRLR on cells (human, UniProt P16471 25-622)
T1 sequence: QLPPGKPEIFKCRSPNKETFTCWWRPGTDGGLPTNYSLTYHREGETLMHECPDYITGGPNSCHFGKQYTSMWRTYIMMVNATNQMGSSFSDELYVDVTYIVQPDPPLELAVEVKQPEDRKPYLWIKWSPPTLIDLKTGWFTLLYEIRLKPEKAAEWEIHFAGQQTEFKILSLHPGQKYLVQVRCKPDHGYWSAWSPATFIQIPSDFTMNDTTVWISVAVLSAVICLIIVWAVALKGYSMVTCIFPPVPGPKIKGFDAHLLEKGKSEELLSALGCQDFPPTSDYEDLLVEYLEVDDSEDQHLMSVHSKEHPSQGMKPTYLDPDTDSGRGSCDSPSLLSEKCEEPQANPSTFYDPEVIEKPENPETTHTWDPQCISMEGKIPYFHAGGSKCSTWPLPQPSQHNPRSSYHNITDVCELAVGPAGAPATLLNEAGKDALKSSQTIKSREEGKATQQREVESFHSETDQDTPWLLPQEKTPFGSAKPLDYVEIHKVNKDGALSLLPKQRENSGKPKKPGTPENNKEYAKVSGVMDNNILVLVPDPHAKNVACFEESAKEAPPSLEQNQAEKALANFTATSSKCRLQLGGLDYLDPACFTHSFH

T2: mouse PRLR on Baf3-mPRLR cells (mouse, UniProt Q08501 20-608)
T2 sequence (looked up): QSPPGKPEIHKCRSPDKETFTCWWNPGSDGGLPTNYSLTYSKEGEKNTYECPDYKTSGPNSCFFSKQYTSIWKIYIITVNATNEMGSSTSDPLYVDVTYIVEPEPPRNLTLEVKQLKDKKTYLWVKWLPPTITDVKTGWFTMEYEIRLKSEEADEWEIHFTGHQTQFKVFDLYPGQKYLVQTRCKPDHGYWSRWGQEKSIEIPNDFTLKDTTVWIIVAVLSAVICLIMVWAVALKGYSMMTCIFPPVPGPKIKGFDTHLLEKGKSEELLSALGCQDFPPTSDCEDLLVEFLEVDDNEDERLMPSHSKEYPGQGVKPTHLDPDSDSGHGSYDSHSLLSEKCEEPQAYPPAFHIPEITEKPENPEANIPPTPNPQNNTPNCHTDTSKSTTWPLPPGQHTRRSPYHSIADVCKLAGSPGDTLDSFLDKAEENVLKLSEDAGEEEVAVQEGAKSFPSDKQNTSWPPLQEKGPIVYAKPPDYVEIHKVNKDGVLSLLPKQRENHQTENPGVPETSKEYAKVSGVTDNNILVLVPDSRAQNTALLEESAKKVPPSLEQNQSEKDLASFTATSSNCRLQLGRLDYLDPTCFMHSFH

T3: cyno PRLR (Biacore antigen) (cyno, UniProt A0A2K5WXK1 25-234)
T3 construct: also called cyPRLR
T3 sequence: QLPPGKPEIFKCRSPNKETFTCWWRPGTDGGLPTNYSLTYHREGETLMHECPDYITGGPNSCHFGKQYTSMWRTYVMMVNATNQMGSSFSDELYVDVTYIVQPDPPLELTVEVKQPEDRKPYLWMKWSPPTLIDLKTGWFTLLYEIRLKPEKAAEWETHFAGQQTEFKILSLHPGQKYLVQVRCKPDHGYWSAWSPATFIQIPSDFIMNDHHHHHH

T4: murine PRLR (Biacore antigen) (murine, UniProt Q08501 20-229, limits assumed)
T4 construct: also called muPRLR
T4 sequence (looked up): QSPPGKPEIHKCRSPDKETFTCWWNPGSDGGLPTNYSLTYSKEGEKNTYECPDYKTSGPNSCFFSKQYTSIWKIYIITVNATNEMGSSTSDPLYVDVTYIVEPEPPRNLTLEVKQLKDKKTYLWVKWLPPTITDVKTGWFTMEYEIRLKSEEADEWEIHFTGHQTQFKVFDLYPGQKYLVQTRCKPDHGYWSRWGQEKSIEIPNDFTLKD

T5: human PRLR (Biacore antigen) (human, UniProt P16471 25-234, limits assumed)
T5 construct: The construct injected over captured antibody is not described (a soluble form is likely); also called huPRLR
T5 sequence: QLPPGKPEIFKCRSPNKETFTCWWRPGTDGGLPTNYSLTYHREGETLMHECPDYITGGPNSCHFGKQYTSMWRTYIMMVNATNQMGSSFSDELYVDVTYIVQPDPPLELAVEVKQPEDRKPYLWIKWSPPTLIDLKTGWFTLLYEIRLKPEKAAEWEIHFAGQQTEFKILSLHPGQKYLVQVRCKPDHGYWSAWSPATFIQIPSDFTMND

T6: human PRLR ECD-Fc fusion protein (human, UniProt P16471 25-233)
T6 construct: not shown: Fc region (captured by goat anti-human Fc)
T6 sequence: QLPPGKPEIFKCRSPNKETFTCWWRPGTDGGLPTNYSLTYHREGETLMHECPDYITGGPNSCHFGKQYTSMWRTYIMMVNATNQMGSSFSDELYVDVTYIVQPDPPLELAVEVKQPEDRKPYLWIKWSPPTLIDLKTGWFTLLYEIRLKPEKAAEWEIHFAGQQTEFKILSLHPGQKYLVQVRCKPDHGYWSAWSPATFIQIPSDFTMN

T7: cyno PRLR ECD-his6 protein (cyno)
T7 chain: T3 sequence

T8: rat PRLR on Nb2-11 rat lymphoma cells (rat, UniProt P05710 20-610)
T8 sequence (looked up): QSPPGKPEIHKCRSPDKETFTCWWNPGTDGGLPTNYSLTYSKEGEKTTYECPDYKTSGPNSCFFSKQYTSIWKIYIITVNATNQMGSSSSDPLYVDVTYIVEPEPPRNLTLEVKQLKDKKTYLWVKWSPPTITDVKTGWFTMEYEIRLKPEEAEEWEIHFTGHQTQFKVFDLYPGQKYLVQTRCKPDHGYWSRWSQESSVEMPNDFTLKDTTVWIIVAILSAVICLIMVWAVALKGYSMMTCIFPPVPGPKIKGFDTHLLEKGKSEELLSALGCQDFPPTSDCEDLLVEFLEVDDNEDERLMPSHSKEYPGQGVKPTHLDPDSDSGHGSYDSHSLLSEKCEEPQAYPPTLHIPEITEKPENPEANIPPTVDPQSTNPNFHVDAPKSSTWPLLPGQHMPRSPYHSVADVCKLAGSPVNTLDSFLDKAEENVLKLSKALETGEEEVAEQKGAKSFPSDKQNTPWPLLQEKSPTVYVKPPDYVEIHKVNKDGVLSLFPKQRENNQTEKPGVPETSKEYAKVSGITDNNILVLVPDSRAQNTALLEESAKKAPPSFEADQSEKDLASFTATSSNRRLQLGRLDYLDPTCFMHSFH

B1: Ab36 (antibody, human IgG1, kappa, V domains shown)
VH: EVQLVQSGAEVKKPGSSVKVSCKASGYTFTSYWIHWVRQAPGQGLEWMGEIDPSDSYTNYNQKFKGRVTITADKSTSTAYMELSSLRSEDTAVYYCARSFFTNWFAYWGQGTLVTVSS
VL: DVVMTQTPLSLSVTPGQPASISCRSSQSLVHSNGNTYLHWYLQKPGQSPQLLIYKVSNRFSGVPDRFSGSGSGTDFTLKISRVEAEDVGVYFCSQSTHVPFTFGGGTKVEIKR
notes: humanized from Ab7; G1; also called Ab4 HC.1 and Ab4 LC.1a
B2: Ab54 (antibody, human IgG1, kappa, V domains shown)
VH: B1 VH with M48I, V68A, I70L, A72V, T76S, A97G
VL: B1 VL
notes: humanized from Ab7 (back mutations on Ab39); G1; also called Ab4 HC.1a.3 and Ab4 LC.1a
B3: Ab55 (antibody, human IgG1, kappa, V domains shown)
VH: B1 VH with M48I, V68A, I70L, A72V, K74R, T76S, A97G
VL: B1 VL
notes: humanized from Ab7 (back mutations on Ab39); G1; also called Ab4 HC.1a.2 and Ab4 LC.1a
B4: Ab9 (antibody, V domains shown)
VH: EVQLQQSGPELVRPGASVKISCKASGYSFTDYNMHWVKQSHGKSLEWIGYIYPYNGGAGYNQKFKSKATMNVGISSSTAYMELRSLTSEDSAVYYCARGDGNYVGDMDYWGQGTSVTVSS
VL: DIQMTQSPASLSASVGETVTITCRASENIYSYLAWYQQKQGKSPQLLVYNAKTLAEGVPSRFSGSGSGTQFSLKINSLQPEDFGSYYCQHHSGTPFTFGSGTKLEIK
notes: murine monoclonal, isotype G2b; also called murine Ab9

Legend:
[1] = target: cyno PRLR on Baf3-cyPRLR cells (cyno); test: cell-based or functional assay
human PRLR on cells [2] = target: T1, human PRLR on cells; test: cell-based or functional assay
[3] = target: T2, mouse PRLR on Baf3-mPRLR cells; test: cell-based or functional assay
[4] = target: T3, cyno PRLR (Biacore antigen); test: SPR Biacore
Outline: (§1)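 Association rate, dissociation rate and dissociation constant were measured by surface plasmon resonance on a Biacore instrument. PRLR antigen was tested at 600 nM, 66.67 nM and 7.41 nM, a 3-point, 9-fold dilution series. Constants came from a 1:1 binding model fit (local Rmax, mass-transport term included) in Biacore T200 Evaluation Software.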

[5] = target: T4, murine PRLR (Biacore antigen); test: SPR Biacore
Outline: as §1

[6] = target: T5, human PRLR (Biacore antigen); test: SPR Biacore
Outline: as §1

[7] = target: T5, human PRLR (Biacore antigen); test: SPR Biacore; remark: listed apart in the source
[8] = target: T6, human PRLR ECD-Fc fusion protein; test: ELISA on ECD
Outline: (§2)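 PRLR was captured on blocked plates for 1 h, then incubated 1 h with serial antibody dilutions in PBS pH 7.4/0.05% Tween 20 containing 10% Superblock. HRP secondary and TMB gave signal read at 450 nm, and EC50 came from curve fitting.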

[9] = target: T7, cyno PRLR ECD-his6 protein; test: ELISA on ECD
Outline: as §2

human PRLR on cells [10] = target: T1, human PRLR on cells; test: FACS T47D 10 ug/mL
[11] = target: T8, rat PRLR on Nb2-11 rat lymphoma cells; test: cell-based or functional assay
[12] = target: T2, mouse PRLR on Baf3-mPRLR cells; test: FACS Baf3-mPRLR 10 ug/mL
Protocol: (§3) Nb2-11 and Baf3-xPRLR cells were resuspended in FACS buffer (PBS+1% FBS) at 2 millions cells/mL. Cells were added to round bottom 96-well plate (100 uL/well) and treated with testing PRLR antibodies for 1 hr at 4 C. Cells were then washed with FACS buffer twice and incubated with 2nd antibody conjugated to ALEXA488 (Invitrogen) for 1 hr at 4 C. After two washes in FACS buffer, cells were resuspended in 1% formaldehyde in PBS. Cells were analyzed using LSRII flowcytometer.

[13] = target: T8, rat PRLR on Nb2-11 rat lymphoma cells; test: FACS Nb2-11 20 ug/mL
Protocol: as §3

| Binder | Baf3-cyPRLR proliferation IC50 [1] [µg/mL] | Baf3-hPRLR proliferation IC50 (human PRLR on cells [2]) [µg/mL] | Baf3-mPRLR proliferation IC50 [3] [µg/mL] | Kd [4] [nM] | koff [4] [s⁻¹] | kon [4] [M⁻¹ s⁻¹] | Kd [5] [nM] | koff [5] [s⁻¹] | kon [5] [M⁻¹ s⁻¹] | Kd [6] [nM] | koff [6] [s⁻¹] | kon [6] [M⁻¹ s⁻¹] | EC50 [8] [nM] | fold weaker affinity than chAb7 [7] [fold] | other results |
| --- | --- | --- | --- | --- | --- | --- | --- | --- | --- | --- | --- | --- | --- | --- | --- |
| B1 | 0.41 | 0.28 | > 30 | 8.51 | 0.00114 | 133000 | 1140 | 0.0568 | 49800 | 8.13 | 0.00128 | 157000 | 0.556 | – | fold decrease in affinity against chAb7 [7]: ~45 fold; EC50 [9]: 0.538 nM |
| B2 | – | 0.77 | – | 0.85 | 0.00012 | 140000 | 170 | 0.007 | 41000 | 1 | 0.00014 | 140000 | – | ~5 | – |
| B3 | – | 0.92 | – | 0.59 | 9.8e-05 | 170000 | 140 | 0.0063 | 44000 | 0.67 | 0.00012 | 170000 | – | ~4 | – |
| B4 | 6.4 | 0.51 | > 30 | – | – | – | – | – | – | 0.226 | 0.000131 | 577000 | 0.072 | – | FACS GeoMean-neg (human PRLR on cells [10]): 1870; Nb2-11 proliferation IC50 [11]: > 30 µg/mL; T47D pPRLR ELISA IC50 (human PRLR on cells [2]): 0.072 µg/mL; FACS GeoMean-neg [12]: 1; FACS GeoMean-neg [13]: 0 |
